According to the DeepSol protein solubility set:

test: soluble on expression in E. coli; label from the status in PepcDB or PDB records

Row | Sequence | soluble on expression in E. coli
1 | MSPEKQPLPAALVGSHVRAAAGTPADLATDRKFWTGLSRAVQERIADDWERTREAYGAARQQHYFSAEFLMGRALLNNLTNLGLVDEAAAATRELGHELTDILEIENDAALGNGGLGRLAACFLDSAVTQDYPVTGYGLLYRFGLFRQSFNEGFQVEKPDPWREEEYPFTIRRASDQLVVCFDDMKTRAIPYDMPITGYGTHNVGTLRLWKAEPWEEFDYDAFNAQRFTDAIIERERVSDICRVLYPNDTTYEGKKLRVRQQYFFTSASLQAMIQDHLAHHKDLSNFAEFHSVQLNDTHPVLAIPELMRLLMDEHDMGWEESWAIVSKTFAYTNHTVLTEALEQWDEQIFQQLFWRVWEIIAEIDRRFRLERAADGLDEETINRMAPIQHGTVHMAWIACYAAYSINGVAALHTEIIKAETLADWYALWPEKFNNKTNGVTPRRWLRMINPGLSDLLTRLSGSDDWVTDLDELKKLRSYADDKSVLEELRAIKAANKQDFAEWILERQGIEIDPESIFDVQIKRLHEYKRQLMNALYVLDLYFRIKEDGLTDIPARTVIFGAKAAPGYVRAKAIIKLINSIADLVNNDPEVSPLLKVVFVENYNVSPAEHILPASDVSEQISTAGKEASGTSNMKFMMNGALTLGTMDGANVEIVDSVGEENAYIFGARVEELPALRESYKPYELYETVPGLKRALDALDNGTLNDNNSGLFYDLKHSLIHGYGKDASDTYYVLGDFADYRETRDRMAADYASDPLGWARMAWINICESGRFSSDRTIRDYATEIWKLEPTPAVKK | soluble
2 | MGHHHHHHSHMGQFYEAESCLVEAGRLPAGQRRFAHFPGLASELLLTGLPLELIDGSTLSMPVRWVTGLLKELHVRLERRSRLVVLSTVGVPGTGKSTLLNTMFGLRFATGKSCGPRGAFMQLITVAEGFSQDLGCDHILVIDSGGLIGGALTSAGDRFELEASLATLLMGLSNVTVISLAETKDIPAAILHAFLRLEKTGHMPNYQFVYQNLHDVSVPGPRPRDKRQLLDPPGDLSRAAAQMEKQGDGFRALAGLAFCDPEKQHIWHIPGLWHGAPPMAAVSLAYSEAIFELKRCLLENIRNGLSNQNKNIQQLIELVRRL | not soluble
3 | MPAENIVEVHHLKKSVGQGEHELSILTGVELVVKRGETIALVGESGSGKSTLLAILAGLDDGSSGEVSLVGQPLHNMDEEARAKLRAKHVGFVFQSFMLIPTLNALENVELPALLRGESSAESRNGAKALLEQLGLGKRLDHLPAQLSGGEQQRVALARAFNGRPDVLFADEPTGNLDRQTGDKIADLLFSLNREHGTTLIMVTHDLQLAARCDRCLRLVNGQLQEEA | soluble
4 | MTLTQIHALLAVLEYGGFTEASKRLYMTQSAVSQAISALEEELGVDILIRERRKEIELTAAGSRIVRHLRAIQRDVNAVKEIAEQEKKNPARTLRIGCFPSACACILPGVIRYFESHHPNVKIIPYEENSTAIIDSLQDGSIDAGFVPFPVNGMYCVPIYRDKFTVVVPENHPLAANSTVTVEELMDEPLIVSKGRYELSIMALFKEKGIEPIFKYEFNHPDTALNFIRQGLGIALLPELTLKATTGKLCSVALEPTFYRQISLLAKEPPVEGSPLFLLQKCMETLTDEGLL | not soluble
5 | MAHHHHHHMQKSNEKNGPENNAKNGPENNAKNGPENNAKKGPENNAKKGPENNAKKGPENNAKKGPENNAKKGPENKEKKGHSCCGKKGSTGNPKEKKKSDKNSEDNKNSQGDKISKDHAECTPSLHVECAHNCCKKKLAFIYDCWDNFKSYKNIIEQHTKGQQENNFQLQGAGDEDSGEDGGASTTGHSMAMAMPMSFQLSTHTIILFKFWETKTVSRAGIPSQWRLLSGTP | soluble
6 | MAHHHHHHMALTTDYSKLGELIHQSPESPSLYNQAKYHTQKQNDSFYEIKRFMCLGSTIPDDAQYSVDLLIDRGDKKCRDVLAESFRVEGYKYATTNNDDNVRFAKLFFDHYANMFYCMHLHGDDRKCNSLFRHFYEAVGKQTR | not soluble
7 | MAGSSEEAPDYGRGVVIMDDWPGYDLNLFTYPQHYYGDLEYVLIPHGIIVDRIERLAKDIMKDIGYSDIMVLCVLKGGYKFCADLVEHLKNISRNSDRFVSMKVDFIRLKSYRNDQSMGEMQIIGGDDLSTLAGKNVLIVEDVVGTGRTMKALLSNIEKYKPNMIKVASLLVKRTSRSDGFRPDYAGFEIPNLFVVGYALDYNEYFRDLNHICVINEHGKEKYRV | soluble
8 | MSLAFEPPRRLVRAFGETAPEGDDWLATLPEVAERAVARRGLTVERVQVPGGRSSLVVLVRTAEGAPAVLKLAPRRARPESERAALVHWGGRGAVQVREEGDEEGVLLLERLHPDVSVRSLPEAKALLEAAGTLRRLWVEPPGSHPFETVAERTGRQAEAMRAGAAADAQVAPLVDAALAARAELLGGPSEQRLLHGTFRQSKVLAGDRMPWLAVGPDPVVGESAFDLARLVRDRVEDLIAQPSGASTTRRRIKRLAESLEVDQERLRGWTLFRAVESGVRARRVGRERDAELLLEFAGWLEGHHHHHH | not soluble
9 | LRSAARTLYTWTLPNEYELIDVREPHEIEHTPSGAHITLPQSMWNDTTAIQHALDNITTDNVVVVCASGIRSAAFIEQFAHLNPHLTFHNVPSGINELP | not soluble
10 | SPMPAGRPRFLRSMALSSQTREWLEKGMPTEAEAGVPIRLQERAANTAPQARAEERHTQPADAAAPHARAERGRTLQAPASTSPLYTGAVPRANRIVQQLVEAGADLANIRTMFRNMLRGEEMILSRAEQNVFLQHFPDMLPCGIDRNSELAIALREALRRADSQQAARAPARTPPRSS | soluble
11 | MGSSHHHHHHSSGRENLYFQGMIYQPDENRYHTMEYRRCGRSGVKLPAISLGLWHNFGDTTRVENSRALLQRAFDLGITHFDLANNYGPPPGSAECNFGRILQEDFLPWRDELIISTKAGYTMWDGPYGDWGSRKYLIASLDQSLKRMGLEYVDIFYHHRPDPETPLKETMKALDHLVRHGKALYVGISNYPADLARQAIDILEDLGTPCLIHQPKYSLFERWVEDGLLALLQEKGVGSIAFSPLAGGQLTDRYLNGIPEDSRAASGSRFLKPEQITADKLEKVRRLNELAARRGQKLSQMALAWVLRNDNVTSVLIGASKPSQIEDAVGMLANRRFSAAECAEIDAILEGRF | soluble
12 | SAAEEEDEVEWVVESIAGFLRGPDWSIPILDFVEQKCEVFDDEEESKLTYTEIHQEYKELVEKLLEGYLKEIGINEDQFQEACTSPLAKTHTSQAILQPVLAAEDFTIFKAMMVQKNIEMQLQAIRIIQERNGVLPDCLTDGSDVVSDLEHEEMKILREVLRKSKEEYDQEEERKRKKQLSEAKTEEPTVHSSEAAIMNNSQGDGEHFAHPPSEVKMHFANQSIEPLGRKVERSETSSLPQKGLKFPGLEHASIEGPIANLSVLGTEELRQREHYLKQKRDKLMSMRKDMRTKQIQNMEQKGKPTGEVEEMTEKPEMTAEEKQTLLKRRLLAEKLKEEVINK | soluble
13 | MNANYVSKKPYIVTIACTKGGSAKSTNAANIGAFCADHGLRTLLIDTDTQPTLSSYYSLAKTAPGGIYEFLLQRDVEPSHIVSQTSIKNLDLIQSNDPSNNVSHMLRNAPDGSIRFSHLIKSINNYDVIVIDTRGTRDITVDMSVLAADILFCPILPQILSAKEFIRGTIGMYQDLQTFESFGFKLPPLKAIANGVDNTNDVKFVMQKLHTLFANTFDESKTLLDFSIPYHVAYREAVTYALPVYRHSAVEYPVMQQLCCLLLPQFKENFEKPMQRGLEHHHHHH | soluble
14 | MLDPARSFDIIGDVHGCALTLERLLDALGYKRVAGVWRHPRRQALFLGDIVDRGPRIREALHIVHDMVEAGQAFCIMGNHEYNALGWVTPALPGSGKAYVREHTPRHARLIDETLTQFAQHPGDWHDFVNWFYQLPLFIDAGRFRLVHACWDPRLIEPLRQQYPDGRIDEHFIQASAVSGSFADTVCNRLLRGTDMRLPDGLTLTGGDGLTRAFFRTKFWEEDPKTYGDIVFQPDALPEEVASTPLSHSQKNALLRYDEDQPMLFVGHYWRSGRPAPIRANLACLDYSAVLYGKLVAYRLDDETRIDPHKFVWVDVDRPQANQLEHHHHHH | soluble
15 | MSLRAAKRHGISIIVAEKNLILGLDVGNTVIKAVLFDTAGRQIAQHAIDGHSTYPQPGYVERDLEELWRNGCEAIRQLLVKSAVDPNSIAGVGCAGHGNGLYLLDKEQQPLLGIQSLDSRAADMAAELDRKSGDLLQARCLQRPWPAQTPTLLAWVKRHALDLYAQTSTVLFCKDFINFRLTGCLANDISDLSGAGLLALPEVLLDRELLSLYGLEDAFAFFPRCVESADIVGQVTREAAGLTGLSEGTPVIGGFFDVVSSAMGSGVINPGEASVIAGTWSINQVFADKPVVSPDVFMVTTFGRDRYVNIESSATSAANLEWYVHRVRADHGDHAFERCNELVGSVTPRADDPFFHPFIFGSRLGAEFRGGFYGLAGWHGEGHMVRALFEGVCFEHRRHIGVLREAGLPVESAVMSGGGSRSQHWPQIMADVLEIPLRVAEARETGALGAALGAAVATGLYPNYEEAVAAMTRVQNSYQPDTARVSHYRRRYGLYQELTGQLRSFWSALRLPQEGHHHHHH | not soluble
16 | MCGIVGFIGEQDAKEILLKGLEKLEYRGYDSAGIAVQAENGVVVYKEKGRIAKLREIVDENVAASVGIGHTRWATHGVPSKVNAHPHQSTSKRFTLVHNGVIENYELVKKEYLQDVTFVSETDTEVIVQLMEQQVSTGLSVEEAFRNTLSLLHGSYAIGLLDAENPNMIYVAKNKSPLLVGVGDNFNVVASDAMAMLQVTDQFIELMDKEIVIVMKESITIKNLQGETIERAPFTAELDASDIEKGTYPHFMLKEIDEQPLVIRNIIQKYQDENGEIELDQDIRNAILDSDRIYIIACGTSYHAGLVGKQFIEKFAKMPVEVHVASEFSYNMPLLTERPFFIYISQSGETADSRAVLVQTNEMGHKALTITNVPGSTLSREADYTLPLYAGPEIAVASTKAYTAQLAVLSILAADIAKAKGEVLGFDLTHELGLVANAMIELCDQKEEMDALAKQFLATTRNCFFIGRSVDFYVGLEGALKLKEISYIQAEGFAGGELKHGTIALIENGTPVIALATQEHVNLGIRGNVKEVVARGANPCIISMKGLEMEGDSFVLPAVHEALAPLVAVIPLQLISYYAALHRECDVDKPRNLAKSVTVE | not soluble
17 | MSQYSNMYKFEIDIQGNLEEVYGRIFSVLKQAGYIILSYVDVAEILQRTMQKKIDPLYILNICKPAAANEFISESYETSMFIPCKLVLHQMGENTRVSLQLISPQIETFTDLSTDVAKKYENEIVDILKKM | not soluble
18 | MPIRDDISWPPSAVCSVSLILHLPGRFGHVSVAHLLLDHGADVNAQNRLGASVLTVASRGGHLGVVKLLLEAGAFVDHHHPSGEQLGLGGSRDEPLDITALMAAIQHGHEAVVRLLMEWGADPNHAARTVGWSPLMLAALTGRLGVAQQLVEKGANPDHLSVLEKTAFEVALDCKHRDLVDYLDPLTTVRPKTGQAACPPWLHRGPQIVFMWLKLRIALLEGHAELRVQPCRPLRLRKWCA | soluble
19 | MGSDKIHHHHHHMVSKMTNQRVLTVPGGINFRELGGYSTKDGRKIKWHKVIRTGGLDQLTPTGQALLDDYGVRYDIDFRSPQEVLDAPDRIPANAKYVYAPVFNVDETRNSDGTDKMTANLEKHPDSGFKHMLKVYQMVADEQHAKDEYRRFFDNLLANDQPDSTLLFHCTAGKDRTGMGAVYLLTALGVDFETIKQDYLLTNQASIGRINGAMAEARAQGASDATVESIRALWSVDADYLDAAMTEIKRQSGNLNHYLHTELKLTNNEINDLQRIYLE | not soluble
20 | MAHHHHHHMPAVADCTVVFPLRHDPASTHPDVSGLVGKAFERVNWRDAFDTFLAEERSALWAAKTAFDNTDTSAYIAARDALFPQAVSGVHGAVAFRNRAGHKLHETMEAVGLWEYLKGGATRAKGTFTFVDVCGGPGAFSQALFAMGKEHKLRLRGFGLTLRNVKGLDWYTDLPSRSFFPCYGIDGTGDVFKLENIESLCSLTCKENVRLVVADGGFDVPTEVVNFQETISCRIVYGQWLSAVKLLRPGGCFVLKLFDCFSPFTRAILFLTTHLYESVQVVKPRHSRVVNSERYLVCIGFIGAPKQWLEHFERCYQEGFVDNDNIPTVLPTSLFSGDKIFGADVERMSATIASNQVSGLHAILEKLQSKPAMEEVKS | not soluble
